Data from patent US20150351390A1, “COMPOSITIONS AND METHODS FOR AUXIN-ANALOG CONJUGATION” (PIONEER HI-BRED INTERNATIONAL, INC., priority 2012, published 2015).

B1: AIGH3-4: GH3 protein, accession XP_002886679 (protein, listed as Arabidopsis lyrata)
chain: MAVDSPLQSRIASPTTSEKDMKALMFIEEMTRNPDSVQEKVLGEILSRNSNTEYLKRFDLNGAVDRKTFKSKVPVVMYEDLKTEIQRISNGDRSPILSSHPINEFLTSSGTSSGERKLMPTIEEDIHRRQLLGSLLMPVMNLYLPGLDKGKGLYFLFVKSESKTSGGLPARPALTSYYKSDHFKTSDLQNDYTSPREAILCSDSSQSMYAQMLCGLLMRHEVLRLGAVFPSGLLRAISFLQNNWKELAQDISTGILSSKIFDPAVNNRMSKILNKPDEELAEFLIGVCSQENWEGIITKIWPNTKYLDVIITGAMAQYIPMLEYYSGGLPIASTIYASSESYFGINLNPMCKPSEVSYTIMPNMAYFEFLPHNHDGDGALDETSLVELADVEVGKEYELVITTYAGLYRYRVGDILCVTGFHNSAPQFKFIRRKNVLLSIESDKTDEADLQKAVDNASRLLAEQGTSVIEYTSYAETKTIPGHYVIYWELLGRDQSNALPSDEVMAKCCLEMEESLNSVYRQSRVSDKSIGPLEIRVVQNGTFDELMDYAISRGSSINQYKVPRCVSLTPILELLDSRVVSAHFSTSLPHWSPERRH
B2: SmXP_002973755: GH3 protein, accession XP_002973755 (protein, listed as Selaginella moellendorffii)
chain: MNLEHKEREKQALQFIEKVTSEAAEVQSAVLSAILERNAHTEYLKRHGLNGRTDKTSFRQCLPVITYEDLEPEIQRIANGDTSPILSAHPISEFLTSSGTSAGQRKLMPTISEEFERRCLLYSLLMPVMNQYLPGLDQGKGMYLFFIKSEAKTPGGLLARPVLTSYYKSRYFTERPYDPCNVYTSPNETVLCPDAHQSMYCQLLCGLLQRHEVLRMGAVFASGFLRAIRFLETHWRELCDDIRAGGLNELVVDAAARRAVLALMPRPDPALADDIAEQCRKESWAGIIARLWPNTKYIDVIVTGTMAQYIPTLDYYSGGLPLVCTMYASSECYFGINLQPLCPPSEVSYTLLPNMAYFEFLPIKPKSGKSKAPRVPDPSELVELVDVKMGHEYELVITTYAGLCRYRVGDILRVTGFHNSAPQFAFVCRKNVVLSIDSDKTGEEDLAKAVRSATAGIESSYGARLIEYTSYADTTTIPGHYVLFWELRSSSPIPKDVLEECCLAIEESLDSVYRQGRVSDRSIGPLEIKVVKPGTFDQLMDYALSRGASINQYKTPRCVKFTPIVELLNARVVSSYFSPRLPKWSPVRPQWANSNGVH
B3: AIGH3-5: GH3 protein, accession XP_002869571 (protein, listed as Arabidopsis lyrata)
chain: MPEAPKKVSLEVFDLTLDQKNKQKLQLIEELTSNADQFQRRVLEEILSRNADVEYLRRHYLNGRTDRETFKNVMPVITYEDIQPEINRIANGDKSPILSSKPISEFLTSSGTSGGERKLMPTIEEELDRRSLLYSLLMPVMSQFVPGLENGKGMYFLFIKSESKTPGGLPARPVLTSYYKSSHFKERPYDPYTNYTSPNETILCSDSYQSMYSQMLCGLCQHQEVLRVGAVFASGFIRAIKFLEKHWTELVRDIRTGTLSSLITDPSVREAVSKILKPNSKLAEFVEFECKKSSWQGIITRLWPNTKYVDVIVTGTMSQYIPTLDYYSNGLPLVCTMYASSECYFGVNLRPLCKPSEVSYTLIPSMAYFEFLPVHRNNGVTNSINLPKALTEKEQQELVDLVDVKLGQEYELVVTTYAGLCRYRVGDLLRVTGFKNKAPQFSFICRKNVVLSIDADKTDEVELQNAVKNAVTYLVPFDASLSEYTSYADTSSIPGHYVLFWELCLDGNTPIPPSVFEDCCLTVEESFNTVYRQGRVSDKSIGPLEIKIVEPGTFDKLMDYAISLGASINQYKTPRCVKFAPIIELLNSRVVNSYLSPKCPKWVPGHKQWGSN
B4: AIGH3-1: GH3 protein, accession XP_002885948 (protein, listed as Arabidopsis lyrata)
chain: MAVDSNLSSPLGPPACEKDAKALRFIEEMTRNADTVQENLLAEILARNANTEYLRRFNLGGATDRDTFKTKIPVITYEDLQPEIQRIADGDRSPILSSHPISEFLTSSGTSAGERKLMPTIREELDRRQLLYSLLMPVMNLYVPGLDKGKGMYFLFVKSESKTPGGLPARPVLTSYYKSEHFRSRPYDPYNVYTSPNEAILCPDSFQSMYTQMLCGLLDRLSVLRVGAVFASGLLRAIRFLQLHWSRFANDIELGCLDSEITDPSIRQCMSGILKPDPVLAEFIRRECKSDNWERIITRIWPNTKYLDVIVTGAMAQYIPTLEYYSGGLPMACTMYASSECYFGLNLNPMSKPSEVSYTIMPNMAYFEFIPLGGTKAVELVDVKIGKEYELVVTTYAGLCRYRVGDILRVTGFHNSAPQFHFVRRKNVLLSIDSDKTDESELQKAVENASKILHEECGSRVAEYTSYADTSTIPGHYVLYWELLVRDGARQPSHETITRCCLEMEESLNSVYRQSRVADNSVGPLEIRVVRNGTFEELMDYAISRGASINQYKVPRCVNFTPIVELLDSRVVSAHFSPSLPHWTPERRRR
B5: ZmACN32133: GH3 protein, accession ACN32133 (protein)
chain: MAPTTATAAAVGTKATALGVAACERDVEKLEFIEDKTRNFDAEQVRVLAEILARNNGAEYLRRHGMEGRTDRLAFKACVPVVTYEDLRPEIERIANGDRSNIISSHPITEFLTSSGTSAGERKLMPTIEDELNRRQMLYSLLMPVMNLYVPGLDKGKGLYFLFIKSETKTPGGLPARPVLTSYYKSDHFKHRPYDPYNVYTSPTAAILCTDSFQSMYSQMLCGLVARAEVLRVGAVFASGLLRAIRFLQLHWQELAHDLRTGTLSAKVTEPSIREAVAEVLRPDAGLADLVEAECGKESWEGIITRVWPNTKYLDVIVTGAMAQYIPTLKYYSGGLPMACTMYASSECYFGLNLRPMCDPSEVSYTIMPNMGYFELLPHDPDAVPPSRDDPPPRLLDLADAEVGRDYELVITTYAGLCRYRVGDILHVTGFHNAAPQFRFVRRKNVLLSVDSDKTDEAELQAAVERAARLLAPYDAAIAEYTSQADATTIPGHYVVYWELMVREGGASPDAAVFERCCLEMEEALNAVYRQGRNGDAIGPLEIRVVRGGTFEEVMDYAISRGASINQYKAPRCVSFGPIIELLNSRVVSSHFSPACPTYSPHKK
modifications: Zea mays
B6: OsGH3-13: GH3 protein, accession EAY81150 (protein, listed as Oryza sativa)
chain: MTSTSSENALDHDHDHDASSPAPATATAAALPPMIPACDPHDGPACLELIEVLTTRAAAVQRRVLAEVLAMNTGTDYLRRFLGDEVAAAAGGEDELAAAFKERVPVVEYEDVKPYIERIANGAPSSLISSKPITELLTSSGTSGGQPKLMPATEEELDRKTFLYNLLVPVMNKYVEGLDEGRGMYLLFVKPEITTASGMVARPVLTSYYKSRHFRRRPDSPYTRYTSPDAAILCPDSRQSMYAQLLCGLARRGEVLRVGAVFASAFLRAVKFLEGHWRALCADIRAGRADPAVVTDAACRGAVDAVLAARADPDLADAIAAECGGASWRGIVRRLWPRTKYIDVIVTGSMAQYIPLLEFYGGGLPLVSTMYASSESYFGINLRPLDPPEEVVYTLLPNMCYYEFIKVEKDGDGEKVRDGEVVDLVGVEVGAYYELVVTTFTGLYRYRVGDILQVAGFHNAAPQFRFVHRRNVVLSVDTDKTSEDDLLRAVTAAKPLLDPLSCVLAEYTAYADTSSIPGHYVLFWELTPSPSPPPPPCHDDANDAADIGEDKDKVAHVMAACCAAVEAGLDSVYRRCRSRDRSIGPLEIRVVAPGAFDALMDMCVSHGSSVNQYKTPRCIKHPDAIAVLEQRVVGRFFSDAVPHWEPLKVDGAAAAPATGSDQ
B7: AIGH3-3: GH3 protein, accession XP_002880486 (protein, listed as Arabidopsis lyrata)
chain: MTVDLPLRSPMNYSPSDKDVKALRFIEEMIRNVDFVQNKVIREILRRNSETEYLKRFGLKGFTDRKAFKTKVPVVTYDDLKPEIQRIANGDRSMILSSHPITEFLTSSGTSAGERKLMPTIEEDMDRRQLLYSLLMPVMNLYVPGLDKGKALYFLFVKTESKTPGGLPARPVLTSYYKSEQFKRRPYDPYNVYTSPNEAILCPDSSQSMYTQMLCGLLMRHEVLRLGAVFASGLLRAIGFLQTNWKELANDISTGTLSSRISDPAIKESMSKILTKPDQELADFITSVCGQDNNWEGIITKIWPNTKYLDVIVTGAMAQYIPMLEYYSGGLPMACTMYASSESYFGINLKPMCKPSEVSYTIMPNMAYFEFLPHEVPTGKSELVELADVEVGKEYELVITTYAGLNRYRVGDILQVTGFYNSAPQFKFVRRKNVLLSIESDKTDEAELQKAVENASVLLGEQGNRVIEYTSYAETKTIPGHYVIYWELLVKDQTNPPNDEVMARCCLEMEESLNSVYRQSRVADKSIGPLEIRVVKNGTFEELMDYAISRGASINQYKVPRCVSFTPIMELLDSRVVSTHFSPALPHWSPERRC

Columns and labels:
[1] = LC-MS assay of GH3 conjugation of IAA with Asp or Glu; assay type: biochemical; settings: for kcat (hrs−1) IAA-Asp: conjugation of IAA with Asp by recombinant GH3 protein, IAA-Asp product by LC-MS; for kcat (hrs−1) IAA-Glu: conjugation of IAA with Glu by recombinant GH3 protein, IAA-Glu product by LC-MS
How it was run: (§1)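 N-His-tagged GH3 homologs expressed in E. coli C41(DE3) and Ni-NTA purified (44 to 164 μg/mL) were incubated 3 hours at 30° C. in 20 mM Tris-HCl pH 8.0, 5 mM MgCl2, 1 mM DTT with 5 mM each of auxin, ATP and Asp or Glu. Conjugates were quantified by LC-MS against standards.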

[2] = LC-MS assay of GH3 conjugation of 2,4-D with Asp or Glu; assay type: biochemical; settings: 5 mM 2,4-D substrate; for kcat (hrs−1) 2,4-D-Asp: conjugation of 2,4-D with Asp by recombinant GH3 protein, 2,4-D-Asp product by LC-MS; for kcat (hrs−1) 2,4-D-Glu: conjugation of 2,4-D with Glu by recombinant GH3 protein, 2,4-D-Glu product by LC-MS
How it was run: as §1

| Molecule | kcat (hrs−1) IAA-Asp [1] [h⁻¹] | kcat (hrs−1) IAA-Glu [1] [h⁻¹] | kcat (hrs−1) 2,4-D-Asp [2] [h⁻¹] | kcat (hrs−1) 2,4-D-Glu [2] [h⁻¹] |
| --- | --- | --- | --- | --- |
| B1 | 3.013 | 0.000 | 0.040 | 0.006 |
| B2 | 220.320 | 9.285 | 1.076 | 0.431 |
| B3 | 429.073 | 24.704 | 1.586 | 0.421 |
| B4 | 436.828 | 14.961 | 2.057 | 0.525 |
| B5 | 876.059 | 83.547 | 0.602 | 0.241 |
| B6 | 10.812 | 494.321 | 0.639 | 5.237 |
| B7 | 3315.262 | 71.865 | 1.566 | 0.172 |
